Data: the supplement of paper PMC12636428

Tested on: Saccharomyces cerevisiae
Test: transcriptional activation domain activity (GFP:mCherry ratio, weighted mean of sorted bins, harmonized to initial dataset scale) (arbitrary fluorescence ratio units); higher = stronger transcriptional activation
Conditions: beta-estradiol 1 µM; induction time 4 h
Outline: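 Each value is an activation activity: the read-weighted mean of bin median fluorescence, averaged across barcodes, then mapped linearly to the initial dataset scale. The tiles, fused to an estradiol-inducible synthetic transcription factor, sat at the yeast URA3 locus in GFP-reporter diploids. Cells spent 4 hours at 30 °C in SC with 1 uM beta-estradiol before sorting into 8 GFP:mCherry bins, and tiles below 50 reads were removed.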

Point of comparison: “AKLESCNPRAYLDPSTAPIATMARGNQRDKAREANLKKQAAQKKGNSMSGTEM”, “transcriptional activation domain activity” value 44300. Against it:
- YSPLYLAITFAVQYGISFTSMTAVVVRTILWYRHDITWTFTLIYSSLGVAAFV — higher, 63700
- LVRQEDLINIAFHFVAKIPCTWPLPLRKAIADLHHYGGLHVGCTVSALFWYIL — higher, 45300
- GPLCMDQYRRIFGVTRRPGLSVDSTVLASDLNGRVSILVLLRNRLFRLSLPTG — lower, 42400
- SVASEKGADDSAEEDHEHEHRHKKRRHREHREREHRSSRHKHRSSRRHAEEVD — lower, 21000
- MGGVVWCFYRVFLFPFLLSPIIPSLLLSSLHTFPLSLTFTFTFILCRMFYVCT — higher, 53500
- SLAFPLFIIARYFPLGLIAIDFIQLAAPTHSQVTCTVLFRLYILLLMIITFST — lower, 40900
- ATCPSFFRSICSTYYDNFVFVWDAVAAFLVPYQRYTYYPIMGIARFNLYLLSW — higher, 52400
- NPLIIYSSQYSVWTMSFSLFFCVFWFLMAGCNFVRPSALHRVYSLIWMFILGW — higher, 51800
- TDDAKAKRKKEKKEKKEKSRSKKSADEGSDNEDGTSEERSKKRKSKSKSKSRS — lower, 30700
- LRPHRYFHTNQIYYAAILIDLILRFTWLSRLSVRINWINDLESGVFVLMFLEV — higher, 62500
- MWLLHFSFLRVLPLFLLMLRCLLLAICIVTYINGPTLVFSHPLITIYSLTLLA — higher, 56200
- RLWQLILCKLEHFHLGFFLLGSVNNIYFTYKILNDMFDIVLLGQDQQDNDDEL — higher, 60000
- RIVRLSFAYTSFIVLPWQQLSEFRGQAYTVGACLEALRLMPNLLRCAFAAYEL — higher, 53600
- MSLFSILYFYYTICFICFLTFLTIKDLHIYLLLKFQITIFLFCYFFVCFLSPL — higher, 76600
- VPLMQFILFPPFDWLVLVASPHNPILTSEFYNHLWSLIKLITLCLPLPLFGTL — higher, 61500
- ENLRTVGLGSVRDICLRNASEQAILTIIDFPLRVLAMIAQIRTGLWVRNGFAI — higher, 53000
- ELQKLLKFKVDDKKYPRFSPMFYPNNVKKDKLLFRVRLLVNILRVVLLGPSSL — lower, 36100
- EKGGRDKDKDGRPANAKPKSKPHGKTPKPQQQRDGKKSATLKENAAPAAPAAA — lower, 24800
- SSLTSIESMGSVMDESGEEEEEDVIYEVKRARTHSMEVQQARLVSWEGAGMKL — lower, 42300
- MSNGSSFVQCIDTRLCLLYSLVFREHMAFHPIISSFLFLIRLLILLASLFLFF — higher, 48500
- MRLCFAKYHFPPPSTFFPPLLFSLLCPVAFYANYCPFFFFFLFLFPYSFFVQE — higher, 63600
- AKKADAPAPAAPAKANKRKKAEESEAESEEEPAPAVKKPKVEQPKAAPKAAKA — lower, 26700
- MSKRLSFFFSGYLVLCGFSGVAFLFYFSLFNLVYYYPFLLLFNGFGGICIFLV — higher, 56800
- LFLLLMFQGLDIFTPGIRVLHFRICLLLLLLIILLAVPLLFSYIHLTAFTIFY — higher, 59100
- DPDASSFSGTVLDKAGSIARLSEDEQGGERAAKRRRLNKKVGMEAIAGLVGEY — lower, 40800
- MTQLYPFFLLFFAGLTMLLLLNHTFLPRVSVKSVKSLFRCNVRGFGTFFLFFL — lower, 43800
- MFMKHGDVSLGYEVCFCILIIITFGLSFFFFFFFHFFLFFHFWLFVSLLFFSD — lower, 41900
- MIDILFFVLFHFFDVLFFSLFCLFLCIILFSSLTFLIYYFFFFFLFFPFFGLF — lower, 36500
- AIHRQLVESILGTTLRCTADISALDVSIADTLWYLLDGTARMVIQFFAVVLFA — higher, 62700
- MSFLYFIRCFVSFHLELLDCYYMMIECLFIFLIFCITICLPFICLYSLLVECF — higher, 49800
- DYTNWLGRNIVAWASKEPSTDDVKLCSGLLVKGLRLGHSDALVKLLVSMLFLT — higher, 49000
- VSSCCPFPLFLFFSFFLSFFLPFLLSSFLSITQSSWPPFHCPCQDTFPFSLPF — lower, 28000
- SASPDESRRSSHRSRRDRDYEKRRDRGEERDSDHDHRRKSHSHRDRERDRGRD — lower, 30000
- DKKEAKPVNGESSKDTKPSGKEKEKELKDNAKPKEAKKGEGNKGGLAKAAAAP — lower, 25800
- MTTWHKVFFFFRNLSFFCLFCLSCFFFLLLFLMKLETTNKVSILYLSLTLILF — lower, 43700
- VDLTQLSHLMLKIWLELILIVVYKHNILERTYENMVISCMKQVIDLLARDISE — higher, 51900
- SSSGTPQAKSSSPSSTAASTKAPTSSATKPTSTGSCRKKRSNSTQRRSRTSRM — higher, 45400
- LLLALLIADCGHLVSMRGLGVQVYWNIWEWNVFTAASVLLVYFYITLRICFLF — higher, 53300
- AAAVAAKKPEEKKEETPAEAATEAPKEEAKEEKKEEKAATKSRSQSRKRTSIF — lower, < 6570
- MPEVESARPTTSSKCIVLFYLFFLPCLSPFLYFLMLTMASVPSPLGFLLLLVC — higher, 66100
- ESGESEESGRARSRRKRRRREERRGEEGKRRTRAGVRRSKGRKTERASTAGTD — lower, 43100
